Results on 25 molecules are retold here after patent US20100272723A1 (Xencor, published 2010).

Changes are numbered by the printed parent chain. Names and notes keep the numbering of the source.

T1: human CD19 (human, UniProt P15391 20-556)
T1 construct: also called B-cell surface antigen B4; B-cell antigen CD19
T1 sequence: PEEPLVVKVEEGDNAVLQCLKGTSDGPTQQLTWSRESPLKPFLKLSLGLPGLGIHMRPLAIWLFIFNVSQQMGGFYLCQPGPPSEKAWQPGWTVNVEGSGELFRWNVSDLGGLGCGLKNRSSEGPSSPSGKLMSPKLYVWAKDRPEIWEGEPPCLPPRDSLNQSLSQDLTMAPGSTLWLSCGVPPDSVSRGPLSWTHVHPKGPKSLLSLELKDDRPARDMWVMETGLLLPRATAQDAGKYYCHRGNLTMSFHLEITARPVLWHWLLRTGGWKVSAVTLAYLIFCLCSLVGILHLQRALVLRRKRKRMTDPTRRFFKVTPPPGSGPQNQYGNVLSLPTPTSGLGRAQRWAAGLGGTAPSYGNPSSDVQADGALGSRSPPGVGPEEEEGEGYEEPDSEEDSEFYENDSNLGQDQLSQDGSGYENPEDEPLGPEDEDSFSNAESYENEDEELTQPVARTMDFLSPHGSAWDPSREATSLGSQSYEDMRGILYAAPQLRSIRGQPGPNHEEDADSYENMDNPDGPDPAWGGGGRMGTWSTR

B1: H1.202 / L1.162 (antibody, V domains shown)
VH: EVQLVESGGGLVKPGGSLKLSCAASGYTFTSYVMHWVRQAPGKGLEWIGYINPYNEGTKYNEKFQGRVTISSDKSISTAYMELSSLRSEDTAMYYCARGTYYYGTRVFDYWGQGTLVTVSS
VL: DIVMTQSPATLSLSPGERATLSCRSSKSLQNANANTYLYWFQQKPGQSPQLLIYRMSNLNSGVPDRFSGSGSGTEFTLTISSLEPEDFAVYYCMQHLEYPITFGAGTKLEIK
notes: vs H1L1 (Kabat): VH D55E/S100cT; VL L27cQ/S27eA/G29A/A55N/F96I; also called 4G7 H1.202_L1.162
B2: H1.203 / L1.163 (antibody, V domains shown)
VH: B1 VH with E56S, K59E
VL: B1 VL with A34S
notes: vs H1L1 (Kabat): VH D55S/K58E/S100cT; VL L27cQ/S27eA/G29S/A55N/F96I; also called 4G7 H1.203_L1.163
B3: H1.203 / L1.164 (antibody, V domains shown)
VH: B1 VH with E56S, K59E
VL: B1 VL with A34G
notes: vs H1L1 (Kabat): VH D55S/K58E/S100cT; VL L27cQ/S27eA/A55N/F96I; also called 4G7 H1.203_L1.164
B4: H1.202 / L1.163 (antibody, V domains shown)
VH: B1 VH
VL: B1 VL with A34S
notes: vs H1L1 (Kabat): VH D55E/S100cT; VL L27cQ/S27eA/G29S/A55N/F96I; also called 4G7 H1.202_L1.163
B5: H1.203 / L1.162 (antibody, V domains shown)
VH: B1 VH with E56S, K59E
VL: B1 VL
notes: vs H1L1 (Kabat): VH D55S/K58E/S100cT; VL L27cQ/S27eA/G29A/A55N/F96I; also called 4G7 H1.203_L1.162
B6: H1.204 / L1.162 (antibody, V domains shown)
VH: B1 VH with K59E
VL: B1 VL
notes: vs H1L1 (Kabat): VH D55E/K58E/S100cT; VL L27cQ/S27eA/G29A/A55N/F96I; also called 4G7 H1.204_L1.162
B7: H1.204 / L1.161 (antibody, V domains shown)
VH: B1 VH with K59E
VL: B1 VL with A32V, A34S
notes: vs H1L1 (Kabat): VH D55E/K58E/S100cT; VL L27cQ/S27eV/G29S/A55N/F96I; also called 4G7 H1.204_L1.161
B8: H1.204 / L1.163 (antibody, V domains shown)
VH: B1 VH with K59E
VL: B1 VL with A34S
notes: vs H1L1 (Kabat): VH D55E/K58E/S100cT; VL L27cQ/S27eA/G29S/A55N/F96I; also called 4G7 H1.204_L1.163
B9: H0L0 (antibody)
heavy chain: EVQLQQSGPELIKPGASVKMSCKASGYTFTSYVMHWVKQKPGQGLEWIGYINPYNDGTKYNEKFKGKATLTSDKSSSTAYMELSSLTSEDSAVYYCARGTYYYGSRVFDYWGQGTTLTVSS
light chain: DIVMTQAAPSIPVTPGESVSISCRSSKSLLNSNGNTYLYWFLQRPGQSPQLLIYRMSNLASGVPDRFSGSGSGTAFTLRISRVEAEDVGVYYCMQHLEYPFTFGAGTKLELK
notes: original 4G7 variable regions; also called 4G7 H0L0
B10: H1L0 (antibody, V domains shown)
VH: B1 VH with E56D, T105S
VL: B9 light chain
notes: also called 4G7 H1L0
B11: H0L1 (antibody, V domains shown)
VH: B9 heavy chain
VL: B1 VL with Q30L, A32S, A34G, N60A, I101F
notes: also called 4G7 H0L1
B12: H0L2 (antibody, V domains shown)
VH: B9 heavy chain
VL: DIVMTQSPSSLSASVGDRVTISCRSSKSLLNSNGNTYLYWFQQKPGQSPQLLIYRMSNLASGVPDRFSGSGSGTEFTLTISSLQPEDVAVYYCMQHLEYPFTFGAGTKLEIK
notes: also called 4G7 H0L2
B13: H0L3 (antibody, V domains shown)
VH: B9 heavy chain
VL: DIVMTQSPATLSVSPGERATISCRSSKSLLNSNGNTYLYWFLQKPGQSPQLLIYRMSNLASGVPDRFSGSGSGTDFTLTISRVEAEDVGVYYCMQHLEYPFTFGAGTKLEIK
notes: also called 4G7 H0L3
B14: H3L0 (antibody, V domains shown)
VH: EVQLVESGGGLVQPGRSLRLSCAASGYTFTSYVMHWVRQMPGKGLEWMGYINPYNDGTKYNEKFQGRVTITSDKSTSTAYMELSRLRSDDTAVYYCARGTYYYGSRVFDYWGQGTLVTVSS
VL: B9 light chain
notes: also called 4G7 H3L0
B15: H2L0 (antibody, V domains shown)
VH: QVQLQESGSGLVKPGGSLRLSCAASGYTFTSYVMHWVRQAPGKGLEWMGYINPYNDGTKYNESLKSRVTISSDKSISTAYMELSSLRAEDTAVYYCARGTYYYGSRVFDYWGQGTLVTVSS
VL: B9 light chain
notes: also called 4G7 H2L0
B16: H2L2 (antibody, V domains shown)
VH: B15 VH
VL: B12 VL
notes: also called 4G7 H2L2
B17: H1L2 (antibody, V domains shown)
VH: B1 VH with E56D, T105S
VL: B12 VL
notes: also called 4G7 H1L2
B18: H3L1 (antibody, V domains shown)
VH: B14 VH
VL: B1 VL with Q30L, A32S, A34G, N60A, I101F
notes: also called 4G7 H3L1
B19: H2L1 (antibody, V domains shown)
VH: B15 VH
VL: B1 VL with Q30L, A32S, A34G, N60A, I101F
notes: also called 4G7 H2L1
B20: H4L0 (antibody, V domains shown)
VH: EVQLQQSGPEVKKPGTSVKVSCKASGYTFTSYVMHWVRQAPGKGLVWVSYINPYNDGTKYNESLKSRVTISSDKSISTAYLQMNSLRAEDTAVYYCARGTYYYGSRVFDYWGQGTLVTVSS
VL: B9 light chain
notes: also called 4G7 H4L0
B21: H2L3 (antibody, V domains shown)
VH: B15 VH
VL: B13 VL
notes: also called 4G7 H2L3
B22: H3L2 (antibody, V domains shown)
VH: B14 VH
VL: B12 VL
notes: also called 4G7 H3L2
B23: H3L3 (antibody, V domains shown)
VH: B14 VH
VL: B13 VL
notes: also called 4G7 H3L3
B24: H4L3 (antibody, V domains shown)
VH: B20 VH
VL: B13 VL
notes: also called 4G7 H4L3
B25: H1L3 (antibody, V domains shown)
VH: B1 VH with E56D, T105S
VL: B13 VL
notes: also called 4G7 H1L3

For the first experiment, the target named is T1, human CD19. The experiment is described as follows: binding affinity relative to the parent H1L1 mAb (Example 5); assay and format not named on the sheet.
Take B1: the Fold change binding was found to be 4.32 fold.
B2: the Fold change binding was 3.2 fold.
For B3, the Fold change binding amounted to 5.58 fold.
As for B4, the Fold change binding is 3.57 fold.
Same read-out and setting: the value for B5 was 3.25 fold; that for B6 was 4.07 fold.
For B7, the Fold change binding was 3.27 fold.
For the molecule B8, the Fold change binding is 4.73 fold.

Another experiment deals with T1, human CD19. The experiment is described as follows: DELFIA competition on Raji cells: unlabeled antibody competes with Eu-labeled anti-CD19 for surface CD19 [upper panel].
For B9, the “IC50 (read off the curve)” value is around 5 nM.
As to B10, the “IC50 (read off the curve)” value is around 20 nM.
Same read-out and setting: the value for B11 was around 3 nM.
In the case of B12, the “IC50 (read off the curve)” value is around 2 nM.
Still for that read-out and setting: the value for B13 was around 3 nM.
For B14, the binding result is on record as “binds”.
With B15, the binding result is “binds”.
In the case of B16, the binding result is listed as “binds”.
On to B17, for which the binding result is given as “binds”.
In the case of B18, the binding result was “binds”.
Same read-out and setting: the value for B19 was “binds”.

The next experiment has as its target T1, human CD19. Put plainly: DELFIA competition on Raji cells: unlabeled antibody competes with Eu-labeled anti-CD19 for surface CD19 [lower panel].
As to B9, the “IC50 (read off the curve)” value is around 8 nM.
For the molecule B20, the “IC50 (read off the curve)” value was around 10 nM.
For B21, the binding result was “binds”.
Take B22: the “IC50 (read off the curve)” value is around 10 nM.
In the case of B23, the “IC50 (read off the curve)” value is around 20 nM.
In the case of B24, the binding result was “binds”.
With B25, the “IC50 (read off the curve)” value was around 20 nM.
